Source: US5622930A, “C1 inhibitor muteins and uses thereof” (CLB, priority 1991, dated 1997)

Test system: C1s
Assay: radioimmune assay of complex formation of C1 inhibitor muteins with solid phase C1s
Format: binding
Details: muteins altered only at P3 (position 442, substituted for Val), FIG. 3
Excerpt: FIG. 2 presents a generalized assay screening format for determining both the inhibitory (complex formation) or protease sensitivity (inactivation) of the C1 muteins. The latter measures inactivation of the C1 inhibitor muteins by non-target proteases. This procedure is also described by Eldering et al., 1988, in J. of Biological Chem., 263: 11776. Modifications of these methods are also known in the art.
Generally, inhibitor activity of C1 muteins may be determined by measuring complex formation between the C1 inhibitor and a substrate. The preferred substrates are, of course, C1s, Kallikrein, B-12a, and plasmin. The C1 inhibitor, or C1 inhibitor muteins, inhibit the protease activity of the substrate by forming a covalent bond with the substrate. These molecules were purified by techniques known in the art, or as described by Liebermann, H., etal., 1984, J. Mol. Biol., 177: 531 and Nuijens, J.,et al., 1987, Immunology, 61: 387.
The preferred assay is a radioimmune assay based on the observation that functional C1 inhibitor muteins bind to activated target substrate, such as C1s. The assay can be performed in several ways, but preferably purified activated C1s is coupled to a solid matrix, preferably Sepharose 4B via cyanogen bromide as is known in the art. Coupled C1s is incubated in an appropriately buffered solution containing, if desired, a small amount of detergent, preferably Tween-20. The latter is used at a concentration of about 0.1% (w/v). The capacity of the C1 inhibitor muteins to complex with the target substrate can be detected using anti-C1 inhibitor mutein antibody. Alternatively, a radiolabelled second antibody can be used to detect the bound first antibody. The antibody may be polyclonal or monoclonal and is incubated for a sufficient time to permit detectible binding of the antibody to the C1 inhibitor to occur. After the appropriate washing steps are conducted whereby non-specifically bound radiolabelled antibody is separated from antibody bound to C1 inhibitor muteins, the amount of radioactivity associated with the latter is determined. In this way, and incorporating the appropriate controls in the assay scheme, the inhibitory capacity of the C1 muteins is determined.
The general procedures for determining both the inhibitory or non-target protease sensitivity of the C1 inhibitor muteins are shown in FIG. 2. The procedures involving C1s will be described briefly, the procedures for the other substrates is similar with modifications as noted by Eldering, 1988, J. Biological Chem., 263: 11776, and as shown by Nuijens et al., above.
As mentioned above, the radioimmune assay to determine the C1 inhibitor activity of the various muteins is based on the observation that functional C1 inhibitor mutein will bind to activated C1s. Thus, purified activated C1s is coupled to CNBr Sepharose 4B and suspended in phosphate-buffered saline, pH 7.4 10 mM EDTA, and 0.1% (w/v) Tween-20. Next, 0.3 ml of this mixture containing 1.5 μg of activated C1s is incubated with various dilutions of the C1 inhibitor muteins for 5 hours. The Sepharose 4B beads are collected, extensively washed, and complexed C1 inhibitor mutein incubated (>4hours) with ^125 I-polyclonal anti-C1 antibody. The antibody is described by Hack, et al., above. The Sepharose beads are washed, and bound radioactivity determined using a LKB 1260 multigamma II gamma counter.

Molecule	complex formation (inhibitory activity), order among P3 muteins
P3-arg: C1 inhibitor mutein with Arg substituted for Val at position 442 (P3) (protein, UniProt P05155 23-500, looked up, variant V442R) Plasma protease C1 inhibitor: NPNATSSSSQDPESLQDRGEGKVATTVISKMLFVEPILEVSSLPTTNSTTNSATKITANTTDEPTTQPTTEPTTQPTIQPTQPTTQLPTDSPTQPTTGSFCPGPVTLCSDLESHSTEAVLGDALVDFSLKLYHAFSAMKKVETNMAFSPFSIASLLTQVLLGAGENTKTNLESILSYPKDFTCVHQALKGFTTKGVTSVSQIFHSPDLAIRDTFVNASRTLYSSSPRVLSNNSDANLELINTWVAKNTNNKISRLLDSLPSDTRLVLLNAIYLSAKWKTTFDPKKTRMEPFHFKNSVIKVPMMNSKKYPVAHFIDQTLKAKVGQLQLSHNLSLVILVPQNLKHRLEDMEQALSPSVFKAIMEKLEMSKFQPTLLTLPRIKVTTSQDMLSIMEKLEFFDFSYDLNLCGLTEDPDLQVSAMQHQTVLELTETGVEAAAASAISRARTLLVFEVQQPFLFVLWDQQHKFPVFMGRVYDPRA	Arg=Gly<Ala<Leu<wild-type=Thr
P3-thr: C1 inhibitor mutein with Thr substituted for Val at position 442 (P3) (protein, UniProt P05155 23-500, looked up, variant V442T) Plasma protease C1 inhibitor: NPNATSSSSQDPESLQDRGEGKVATTVISKMLFVEPILEVSSLPTTNSTTNSATKITANTTDEPTTQPTTEPTTQPTIQPTQPTTQLPTDSPTQPTTGSFCPGPVTLCSDLESHSTEAVLGDALVDFSLKLYHAFSAMKKVETNMAFSPFSIASLLTQVLLGAGENTKTNLESILSYPKDFTCVHQALKGFTTKGVTSVSQIFHSPDLAIRDTFVNASRTLYSSSPRVLSNNSDANLELINTWVAKNTNNKISRLLDSLPSDTRLVLLNAIYLSAKWKTTFDPKKTRMEPFHFKNSVIKVPMMNSKKYPVAHFIDQTLKAKVGQLQLSHNLSLVILVPQNLKHRLEDMEQALSPSVFKAIMEKLEMSKFQPTLLTLPRIKVTTSQDMLSIMEKLEFFDFSYDLNLCGLTEDPDLQVSAMQHQTVLELTETGVEAAAASAISTARTLLVFEVQQPFLFVLWDQQHKFPVFMGRVYDPRA	Arg=Gly<Ala<Leu<wild-type=Thr
P3-leu: C1 inhibitor mutein with Leu substituted for Val at position 442 (P3) (protein, UniProt P05155 23-500, looked up, variant V442L) Plasma protease C1 inhibitor: NPNATSSSSQDPESLQDRGEGKVATTVISKMLFVEPILEVSSLPTTNSTTNSATKITANTTDEPTTQPTTEPTTQPTIQPTQPTTQLPTDSPTQPTTGSFCPGPVTLCSDLESHSTEAVLGDALVDFSLKLYHAFSAMKKVETNMAFSPFSIASLLTQVLLGAGENTKTNLESILSYPKDFTCVHQALKGFTTKGVTSVSQIFHSPDLAIRDTFVNASRTLYSSSPRVLSNNSDANLELINTWVAKNTNNKISRLLDSLPSDTRLVLLNAIYLSAKWKTTFDPKKTRMEPFHFKNSVIKVPMMNSKKYPVAHFIDQTLKAKVGQLQLSHNLSLVILVPQNLKHRLEDMEQALSPSVFKAIMEKLEMSKFQPTLLTLPRIKVTTSQDMLSIMEKLEFFDFSYDLNLCGLTEDPDLQVSAMQHQTVLELTETGVEAAAASAISLARTLLVFEVQQPFLFVLWDQQHKFPVFMGRVYDPRA	Arg=Gly<Ala<Leu<wild-type=Thr
P3-ala: C1 inhibitor mutein with Ala substituted for Val at position 442 (P3) (protein, UniProt P05155 23-500, looked up, variant V442A) Plasma protease C1 inhibitor: NPNATSSSSQDPESLQDRGEGKVATTVISKMLFVEPILEVSSLPTTNSTTNSATKITANTTDEPTTQPTTEPTTQPTIQPTQPTTQLPTDSPTQPTTGSFCPGPVTLCSDLESHSTEAVLGDALVDFSLKLYHAFSAMKKVETNMAFSPFSIASLLTQVLLGAGENTKTNLESILSYPKDFTCVHQALKGFTTKGVTSVSQIFHSPDLAIRDTFVNASRTLYSSSPRVLSNNSDANLELINTWVAKNTNNKISRLLDSLPSDTRLVLLNAIYLSAKWKTTFDPKKTRMEPFHFKNSVIKVPMMNSKKYPVAHFIDQTLKAKVGQLQLSHNLSLVILVPQNLKHRLEDMEQALSPSVFKAIMEKLEMSKFQPTLLTLPRIKVTTSQDMLSIMEKLEFFDFSYDLNLCGLTEDPDLQVSAMQHQTVLELTETGVEAAAASAISAARTLLVFEVQQPFLFVLWDQQHKFPVFMGRVYDPRA	Arg=Gly<Ala<Leu<wild-type=Thr
wild-type: wild type C1 inhibitor, plasma glycoprotein serine protease inhibitor with isoleucine and valine at positions 440 and 442 (protein, UniProt P05155 23-500, looked up) Plasma protease C1 inhibitor: NPNATSSSSQDPESLQDRGEGKVATTVISKMLFVEPILEVSSLPTTNSTTNSATKITANTTDEPTTQPTTEPTTQPTIQPTQPTTQLPTDSPTQPTTGSFCPGPVTLCSDLESHSTEAVLGDALVDFSLKLYHAFSAMKKVETNMAFSPFSIASLLTQVLLGAGENTKTNLESILSYPKDFTCVHQALKGFTTKGVTSVSQIFHSPDLAIRDTFVNASRTLYSSSPRVLSNNSDANLELINTWVAKNTNNKISRLLDSLPSDTRLVLLNAIYLSAKWKTTFDPKKTRMEPFHFKNSVIKVPMMNSKKYPVAHFIDQTLKAKVGQLQLSHNLSLVILVPQNLKHRLEDMEQALSPSVFKAIMEKLEMSKFQPTLLTLPRIKVTTSQDMLSIMEKLEFFDFSYDLNLCGLTEDPDLQVSAMQHQTVLELTETGVEAAAASAISVARTLLVFEVQQPFLFVLWDQQHKFPVFMGRVYDPRA	Arg=Gly<Ala<Leu<wild-type=Thr
P3-gly: C1 inhibitor mutein with Gly substituted for Val at position 442 (P3) (protein, UniProt P05155 23-500, looked up, variant V442G) Plasma protease C1 inhibitor: NPNATSSSSQDPESLQDRGEGKVATTVISKMLFVEPILEVSSLPTTNSTTNSATKITANTTDEPTTQPTTEPTTQPTIQPTQPTTQLPTDSPTQPTTGSFCPGPVTLCSDLESHSTEAVLGDALVDFSLKLYHAFSAMKKVETNMAFSPFSIASLLTQVLLGAGENTKTNLESILSYPKDFTCVHQALKGFTTKGVTSVSQIFHSPDLAIRDTFVNASRTLYSSSPRVLSNNSDANLELINTWVAKNTNNKISRLLDSLPSDTRLVLLNAIYLSAKWKTTFDPKKTRMEPFHFKNSVIKVPMMNSKKYPVAHFIDQTLKAKVGQLQLSHNLSLVILVPQNLKHRLEDMEQALSPSVFKAIMEKLEMSKFQPTLLTLPRIKVTTSQDMLSIMEKLEFFDFSYDLNLCGLTEDPDLQVSAMQHQTVLELTETGVEAAAASAISGARTLLVFEVQQPFLFVLWDQQHKFPVFMGRVYDPRA	Arg=Gly<Ala<Leu<wild-type=Thr
